Assay results published in patent US20160324936.

System: GST-p21

Substance	in vitro kinase assay: 32P-labeling of GST-p21, SDS-PAGE and autoradiography
GFP-tagged kinase dead (K67M) mutant of PIM-1 (GFP-PIM-DN)	this activity was abolished in the Pim-DN construct
GFP-tagged wild-type 34 kDa human PIM-1 (GFP-PIM-wt)	Pim-wt overexpression phosphorylates p21
